Data from PMC2957810 (Traffic (Copenhagen, Denmark), 2009).
One block for each molecule: values may come before it.

How the values were obtained:
Assay in all cases: co-IP
[1] = biological target: pro-ALP (yeast vacuolar alkaline phosphatase, pro-form) (S. cerevisiae) (UniProt P11491)
[2] = biological target: Δ79-82ALP (dimerization mutant of pro-ALP) (S. cerevisiae) (UniProt P11491)
co-IP = biological target: the molecule itself

percent of total Erv26p recovered in the IP [1]: 2.5%
percent of total Erv26p recovered in the IP [2]: 1%
Molecule: Erv26p (receptor)

B1: Δ79-82ALP (dimerization mutant of pro-ALP) (natural protein, S. cerevisiae, UniProt P11491 1-566, looked up)
chain: MMTHTLPSEQTRLVPGSDSSSRPKKRRISKRSKIIVSTVVCIGLLLVLVQLAFPSSFALRSASHKKKNVIFFVTDGMGSMARSFNQHVNDLPIDDILTLDEHFIGSSRTRSSDSLVTDSAAGATAFACALKSYNGAIGVDPHHRPCGTVLEAAKLAGYLTGLVVTTRITDATPASFSSHVDYRWQEDLIATHQLGEYPLGRVVDLLMGGGRSHFYPQGEKASPYGHHGARKDGRDLIDEAQSNGWQYVGDRKNFDSLLKSHGENVTLPFLGLFADNDIPFEIDRDEKEYPSLKEQVKVALGALEKASNEDKDSNGFFLMVEGSRIDHAGHQNDPASQVREVLAFDEAFQYVLEFAENSDTETVLVSTSDHETGGLVTSRQVTASYPQYVWYPQVLANATHSGEFLKRKLVDFVHEHKGASSKIENFIKHEILEKDLGIYDYTDSDLETLIHLDDNANAIQDKLNDMVSFRAQIGWTTHGHSAVDVNIYAYANKKATWSYVLNNLQGNHENTEVGQFLENFLELNLNEVTDLIRDTKHTSDFDATEIASEVQHYDEYYHELTN
ratio of untagged to HA-tagged pro-ALP immunoprecipitated (co-IP): 0.05

B2: pro-ALP (yeast vacuolar alkaline phosphatase, pro-form) (natural protein, S. cerevisiae, UniProt P11491 1-566, looked up)
chain: MMTHTLPSEQTRLVPGSDSSSRPKKRRISKRSKIIVSTVVCIGLLLVLVQLAFPSSFALRSASHKKKNVIFFVTDGMGPASLSMARSFNQHVNDLPIDDILTLDEHFIGSSRTRSSDSLVTDSAAGATAFACALKSYNGAIGVDPHHRPCGTVLEAAKLAGYLTGLVVTTRITDATPASFSSHVDYRWQEDLIATHQLGEYPLGRVVDLLMGGGRSHFYPQGEKASPYGHHGARKDGRDLIDEAQSNGWQYVGDRKNFDSLLKSHGENVTLPFLGLFADNDIPFEIDRDEKEYPSLKEQVKVALGALEKASNEDKDSNGFFLMVEGSRIDHAGHQNDPASQVREVLAFDEAFQYVLEFAENSDTETVLVSTSDHETGGLVTSRQVTASYPQYVWYPQVLANATHSGEFLKRKLVDFVHEHKGASSKIENFIKHEILEKDLGIYDYTDSDLETLIHLDDNANAIQDKLNDMVSFRAQIGWTTHGHSAVDVNIYAYANKKATWSYVLNNLQGNHENTEVGQFLENFLELNLNEVTDLIRDTKHTSDFDATEIASEVQHYDEYYHELTN
ratio of untagged to HA-tagged pro-ALP immunoprecipitated (co-IP): 0.38
